Assay results as given in the DeepSol protein solubility set.

Assay: soluble on expression in E. coli; label from the status in PepcDB or PDB records

| Sequence | soluble on expression in E. coli |
| --- | --- |
| MTKVSIIVPVYNTKNYVPRLLTSIEKQTYTNWELILVDDHSNDGTYELLLEFKDRYPNKVEVLKTPKPRSGPMIGKNMGIEVSSGKFLAFVDSDDWWSETFLKDTVSNIKSFGGVSTEYYDVFEDSDKKVHVKASKHGVVSWEDVLKLKARFGNGNSLLRRKIVENYGIRFPEHLWYSEDIYFYTQYLSVIDRIYVVPSPDFYHLVRGASMVRSDKIKQESKIEQTIRVYEEVCTRIQEISKVSDEVCKLLKSYQMPYSIMTYITSVSDSLGRAEARKLFWKYLDYLKGYRLTRSHQSYLTLLWILDLFIPIRGILRRLIGLEHHHHHH | soluble |
| MGSDKIHHHHHHMISNQILQNTIDGLKGITRTDLCVIDVEGKILAATFPNAEAFIEPAQAFVASPADSQVINGCQFFKVFDDHQLEYVLLAYGDSEDVYMIGKIASFQIQNLLVAYKERFDKDNFIKNLLLDNLLLVDIYNRAKKLHIDIEVRRVVFIVETNREKDGNELEKIRSLFGGKSKDFVTAVDEKNIIVVKELAENETYDDLRKTAEVILNLFRSEADGVHIAYGTVINELKEVSRSYKEARMALDVGKIFFEERNIIAYSQLGIGRLIYQLPIPLCKMFIKEIFDGKSPDDFDEEILSTINKFFENSLNVSETSRQLYIHRNTLVYRLDKLQKSTGLDLRVFEDAITFKIALMVVKYMKYMESMDY | not soluble |
| MEGLKLSEAELMIFIHPSQSRNVFQGICRELSSLLFQYNETFDGVLLAYDATVKSKQAKILTGLHPYFGVRVNTRLLLFDPKPKSFVEGKIVKISPESIHVIVLGFSAAVITDVDIREEFKYRVRDGEGSFVSRSHKRHALKLGTMLRLQVQSFDEEVMHIAGSLLPENTGCVKWLEKKSEEALPTDRDHKRRKLA | not soluble |
| MVSTLKRDEALFELIALEEKRQREGLELIASENFVSKQVREAVGSVLTNKYAEGYPGARYYGGCEVIDRVESLAIERAKALFGAAWANVQPHSGSQANMAVYMALMEPGDTLMGMDLAAGGHLTHGSRVNFSGKLYKVVSYGVRPDTELIDLEEVRRLALEHRPKVIVAGASAYPRFWDFKAFREIADEVGAYLVVDMAHFAGLVAAGLHPNPLPYAHVVTSTTHKTLRGPRGGLILSNDPELGKRIDKLIFPGIQGGPLEHVIAGKAVAFFEALQPEFKEYSRLVVENAKRLAEELARRGYRIVTGGTDNHLFLVDLRPKGLTGKEAEERLDAVGITVNKNAIPFDPKPPRVTSGIRIGTPAITTRGFTPEEMPLVAELIDRALLEGPSEALREEVRRLALAHPMP | soluble |
| MGSDKIHHHHHHMIDLHCHILPNIDDGAKSIDEAIALVALAAEQGVSRMVATPHIHLGIYDNNLQSINAAYHLLCDALALTNIDIQLRAAAEVRVSPEIMLFIEQQQLPFLGRYQQKDVLLLELPSSHIPPGTDKLISWLLAKNVLPMIAHPERNRELQSHPERITPFVRAGCLFQLTAASLIGDMGEAPKQLSEYFIKQKLYSIIGSDCHSLNRRPPKLLQAQHAVTALTDQEYAFALTTSMPGSISNVLFAESSD | not soluble |
| MARKKTITKEQILTAAYEVVATEGFSKFTARNIANKMKCSTQPIYLEFKNMDDLRDALFQKIHKYLAKEVFPVKHTGNTIVDLALNYIHFATSESKLYRALYLEEYGGGKKMQEFSYHYFTEAVKADPEYANLNDVQIDSLHMGTWVVATGVAALMTSGIIHPSEEQIIHLMKDSIEAILERDEPIDIDL | soluble |
| MRHFDIAITGAGLAGQIAAIALARAGRHVALIAPSSEKKDQRTTALMDQSIRFMDRLGLWSRIAPSAARLSTMQIIDGTDRLLRAPTVQFRSSEIGLDAFGWNIPNEALLGVLSEAVEQEHNITRLDTTAETIDIGNDRISVTIADGEVLSADFLIGADGRKSMVREAAGIGVKSWSYPQTAVVLNFSHSRPHGNVSTEFHTPTGPFTQVPLPDDRSSLVWVVTPQQAEELTALPLETLSLKVEERMQSMLGAVTVENSVQAWPLSSMTAHRFGKGRVALIGEAAHGFPPIGAQGLNLSLRDIIALTELLGAVSDRPIAADAGSSFDRKRRADVYSRTLSVDLLNRSLLSDFLPVQMARAAGLHVLSGIGTLRSMVMREGIEPGRGLKALPSLLFGSFKKAGLEHHHHHH | soluble |
| MSKKTLSTVNYQLSTDTMCLAIPGQVIEIREENGLKMGTVDISGALTKACLEYVPEIAIGQYTIVHAGFALKIIDEKEAAESLKLWDELIKSGAFDVDGELPPSPIQKPEA | not soluble |
| MKCLKPSIGPVRGTDGDWKNIMKQFLRCGLAFAWSSVLGSSIAMDSLFGLPVRSTVKANLGALREGYVNIAVHGHSPLLVSEIVKQGRSREFIQMAKEKGALGIQFYGICCSGLSAMYRYGGVIPLSNAIGAELVLGTGAIDLWVADVQDVFPSIMDVAKCFKTTVVTTSDSARLPGAEHYAYDHHHSNLAQTQELAKTIVKRAIESFEARRDVPVFIPNYEVDAEIGFSVEYATSRFGSMDVIAKALQEGKIRGVVNLVGCNNPRVMYEKAIADVARKLIENNILVLTNGCASFPLLKLGYCNVKALEWTGKELREFLEPDLPPVWHMGECLDNARASAFFRALADSLKKDIKDMPFAFASPEWSNEKGVGAALGFRLLGINSYHSVYPPVQGSKNVMKYLFEDTEKTLGAVMIVEVDPLKLADRIISDIDEKRKALMWK | not soluble |
| MPCSFAPGFLALTVAIHPGTTAQPSQQSPRAFPFFRPVLAQLMKHRVAQESTRRWLDRIIQIIKYAYCQKLRRHFCQATLWKMIQLIVNGQSQLVPSPDSGTDSGTTNDARLNIRQLLEHMGLQGKRIAVERNGEIVPRSQFDQPMLASGDKLEIVVAVGGGLEHHHHHH | not soluble |
| MSLIDTMQYGKNDSLRDEIKAYWSGRAATFDLSPGHEIFSEDERAAWHALILKHLGRGEGRKALDLASGTGVISHLMDDLGFQVTGMDWSETMLGLAREKAKSRGRNIRFFVGDAENTMEPDESADVIITRHLVWTLVDPQASFAEWFRVLKPGGKLLIVDGDFVNTGWRERLVKKLAVSLESIGLVKADQPHKPADPENTFNSILSRVYFSKGARAGDVATMLGATGFEPVSVDQELRAIHRAQAKNFSLLKGILRGLQHRYAVCAVKPDTSVKGEGHHHHHH | not soluble |
| MGSDKIHHHHHHMKEYIMSFFNAPVTNKIPTCICSVAGLHTYISTNPQLEELTRKVRAGLGDKQVFRKNKQTLLPYVTPAGIFSYCKEQCMQVPSGLFVIDIDELASTEEAAMWRDRLFADEVLHPVLSFVSPGNQGVKLFIPYRINPFLSVEESFDNALHTAWEYLEWKYELKVDRANADLSRACFLSHDGEAKINNHKY | not soluble |
| AHHHHHHGSKVEKYAIIFGKNPELGLYELKAFSKRFKLGVRILEIRFYGPNKSFAIIQAKEEIEKKFKWLGGALKLVRIVGEGLDTIENLEYSKLFTVSLYGKEDWKAWRKLGSQVKAVFKRKDSSKFFKPANVYSMPSELILKGFPEVKDVVFLFVDKDRVLVGETIRITNPFELKKLDVERPIVRPTLSIPPRLARIMINLSEVRKGNVLDPFCGTGTILVELLLQGLIAYGSDISQERINDARKNIEWIRKEFRIKQNASLRVCDVRRLKKCFRTRFDAIITEPYMGRPLKTKPTREEAIKIAKQLDRLYYQAFESFSDVLKRNAKVVFVFPAFNLAEGGVYRRNRPWLEELGFKVEYSILDIDEKHRIGRDIYVIRY | soluble |
| MKGDRLKANVLAVRLIPNVDSDMAKELGLPNEHRSIGILTADCDDVTYTALDEATKKAVVDVAYGKSFYGGAANANTKLAGEVIGILSGPTPAEVKSGLAAAVDFIENEAAFISANDDDSIAYFAHCISRTGTYLSKTAGIPEGESLAYLIAPPLEAMYALDVALKAADVRLVAFYGPPSETNFGGGLLTGSQSACKAACDAFAEAVKFVADNPLNY | soluble |
| GSHMLEMRIGHGFDVHAFGGEGPIIIGGVRIPYEKGLLAHSDGDVALHALTDALLGAAALGDIGKLFPDTDPAFKGADSRELLREAWRRIQAKGYTLGNVDVTIIAQAPKMLPHIPQMRVFIAEDLGCHMDDVNVKATTTEKLGFTGRGEGIACEAVALLIKATK | soluble |
| MGFQNLWFSHPRKFGPGSRSCRVCAGHHGLIRKYGLDLCRRCFREQARDIGFKKLD | not soluble |
